Data as given in publication PMC3424314 (Journal of immunology (Baltimore, Md. : 1950), 2012).
Values belong to the binder of their own block, whether it stands above or below them.

Target: CD40 receptor on a stable CHO cell line (Homo sapiens, UniProt P25942)
Test: flow cytometry on cells

Sequence of CD40 receptor on a stable CHO cell line (P25942 21-277): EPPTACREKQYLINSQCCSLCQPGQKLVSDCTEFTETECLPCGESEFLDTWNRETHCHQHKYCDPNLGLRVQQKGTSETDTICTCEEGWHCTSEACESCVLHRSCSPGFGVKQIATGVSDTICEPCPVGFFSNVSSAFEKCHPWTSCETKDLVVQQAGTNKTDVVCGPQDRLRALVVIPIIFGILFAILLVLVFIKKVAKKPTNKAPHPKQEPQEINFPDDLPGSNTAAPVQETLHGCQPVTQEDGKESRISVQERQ

binding result: binds
B1: anti-CD40 rAb with H chain C-terminal dockerin (antibody, V domains shown)
VH: EVKLVESGGGLVQPGGSLKLSCATSGFTFSDYYMYWVRQTPEKRLEWVAYINSGGGSTYYPDTVKGRFTISRDNAKNTLYLQMSRLKSEDTAMYYCARRGLPFHAMDYWGQGTSVTVSS
VL: DIQMTQTTSSLSASLGDRVTISCSASQGISNYLNWYQQKPDGTVKLLIYYTSILHSGVPSRFSGSGSGTDYSLTIGNLEPEDIATYYCQQFNKLPPTFGGGTKLEIK

binding result: binds
B2: recombinant anti-CD40 rAb (antibody, V domains shown)
VH: B1 VH
VL: B1 VL
